The FLAb antibody collection (doi:10.7554/elife.23156)

B1: scFv; the commonest letter at each place (parent)
chain 1: EVKLDETGGGLVQPGRPMKLSCVASGFTFSDYWMNWVRQSPEKGLEWVAQIRNKPYNYETYYSDSVKGRFTISRDDSKSSVYLQMNNLRVEDMGIYYCTGSYYGMDYWGQGTSVTVS
chain 2: DVVMTQTPLSLPVSLGDQASISCRSSQSLVHSNGNTYLRWYLQKPGQSPKVLIYKVSNRFSGVPDRFSGSGSGTDFTLKISRVEAEDLGVYFCSQSTHVPWTFGGGTKLEIK

Key:
[1] = variants of: B1; assay: Kd (Tite-Seq); conditions: with fluorescein; format: scFv 4-4-20, heavy + light
[2] = variants of: B1; assay: yeast surface expression (ratio to wild type); higher = more expressed; conditions: format: scFv 4-4-20, heavy + light

| Variant | Kd [1] [nM] | yeast surface expression [2] |
| --- | --- | --- |
| chain 1 EVKLDETGGGLVQPGRPMKLSCVASGFTFHHYWMNWVRQSPEKGLEWVAQIRNKPYNYETYYSDSVKGRFTISRDDSKSSVYLQMNNLRVEDMGIYYCTGSYYGMDYWGQGTSVTVS chain 2 DVVMTQTPLSLPVSLGDQASISCRSSQSLVHSNGNTYLRWYLQKPGQSPKVLIYKVSNRFSGVPDRFSGSGSGTDFTLKISRVEAEDLGVYFCSQSTHVPWTFGGGTKLEIK [chain 1 S30H D31H] | 1.75 | 0.746 |
| chain 1 EVKLDETGGGLVQPGRPMKLSCVASGFTFSDYPMNWVRQSPEKGLEWVAQIRNKPYNYETYYSDSVKGRFTISRDDSKSSVYLQMNNLRVEDMGIYYCTGSYYGMDYWGQGTSVTVS chain 2 DVVMTQTPLSLPVSLGDQASISCRSSQSLVHSNGNTYLRWYLQKPGQSPKVLIYKVSNRFSGVPDRFSGSGSGTDFTLKISRVEAEDLGVYFCSQSTHVPWTFGGGTKLEIK [chain 1 W33P] | ≥ 10000 | 0.803 |
| chain 1 EVKLDETGGGLVQPGRPMKLSCVASGFTFSDYWCNLVRQSPEKGLEWVAQIRNKPYNYETYYSDSVKGRFTISRDDSKSSVYLQMNNLRVEDMGIYYCTGSYYGMDYWGQGTSVTVS chain 2 DVVMTQTPLSLPVSLGDQASISCRSSQSLVHSNGNTYLRWYLQKPGQSPKVLIYKVSNRFSGVPDRFSGSGSGTDFTLKISRVEAEDLGVYFCSQSTHVPWTFGGGTKLEIK [chain 1 M34C W36L] | ≥ 10000 | 0.524 |
| chain 1 EVKLDETGGGLVQPGRPMKLSCVASGFQFSDSWMNWVRQSPEKGLEWVAQIRNKPYNYETYYSDSVKGRFTISRDDSKSSVYLQMNNLRVEDMGIYYCTGSYYGMDYWGQGTSVTVS chain 2 DVVMTQTPLSLPVSLGDQASISCRSSQSLVHSNGNTYLRWYLQKPGQSPKVLIYKVSNRFSGVPDRFSGSGSGTDFTLKISRVEAEDLGVYFCSQSTHVPWTFGGGTKLEIK [chain 1 T28Q Y32S] | 89.6 | 0.926 |
| chain 1 EVKLDETGGGLVQPGRPMKLSCVASGFTFSDYAMNHVRQSPEKGLEWVAQIRNKPYNYETYYSDSVKGRFTISRDDSKSSVYLQMNNLRVEDMGIYYCTGSYYGMDYWGQGTSVTVS chain 2 DVVMTQTPLSLPVSLGDQASISCRSSQSLVHSNGNTYLRWYLQKPGQSPKVLIYKVSNRFSGVPDRFSGSGSGTDFTLKISRVEAEDLGVYFCSQSTHVPWTFGGGTKLEIK [chain 1 W33A W36H] | ≥ 10000 | 0.549 |
| chain 1 EVKLDETGGGLVQPGRPMKLSCVASGFTISKYWMNWVRQSPEKGLEWVAQIRNKPYNYETYYSDSVKGRFTISRDDSKSSVYLQMNNLRVEDMGIYYCTGSYYGMDYWGQGTSVTVS chain 2 DVVMTQTPLSLPVSLGDQASISCRSSQSLVHSNGNTYLRWYLQKPGQSPKVLIYKVSNRFSGVPDRFSGSGSGTDFTLKISRVEAEDLGVYFCSQSTHVPWTFGGGTKLEIK [chain 1 F29I D31K] | 4.93 | 0.958 |
| chain 1 EVKLDETGGGLVQPGRPMKLSCVASGFTSHDYWMNWVRQSPEKGLEWVAQIRNKPYNYETYYSDSVKGRFTISRDDSKSSVYLQMNNLRVEDMGIYYCTGSYYGMDYWGQGTSVTVS chain 2 DVVMTQTPLSLPVSLGDQASISCRSSQSLVHSNGNTYLRWYLQKPGQSPKVLIYKVSNRFSGVPDRFSGSGSGTDFTLKISRVEAEDLGVYFCSQSTHVPWTFGGGTKLEIK [chain 1 F29S S30H] | 832 | 0.945 |
| chain 1 EVKLDETGGGLVQPGRPMKLSCVASGFTFSDYWMNWVRQSPEKGLEWVAQIRNKPYNYETYYSDSVKGRFTISRDDSKSSVYLQMNNLRVEDMGIYYCTGSYIGMDYWVQGTSVTVS chain 2 DVVMTQTPLSLPVSLGDQASISCRSSQSLVHSNGNTYLRWYLQKPGQSPKVLIYKVSNRFSGVPDRFSGSGSGTDFTLKISRVEAEDLGVYFCSQSTHVPWTFGGGTKLEIK [chain 1 Y103I G109V] | ≥ 10000 | 0.222 |
| chain 1 EVKLDETGGGLVQPGRPMKLSCVASGFTFSDYWMNFCRQSPEKGLEWVAQIRNKPYNYETYYSDSVKGRFTISRDDSKSSVYLQMNNLRVEDMGIYYCTGSYYGMDYWGQGTSVTVS chain 2 DVVMTQTPLSLPVSLGDQASISCRSSQSLVHSNGNTYLRWYLQKPGQSPKVLIYKVSNRFSGVPDRFSGSGSGTDFTLKISRVEAEDLGVYFCSQSTHVPWTFGGGTKLEIK [chain 1 W36F V37C] | 0.454 | 0.75 |
| chain 1 EVKLDETGGGLVQPGRPMKLSCVASGFHFNDMWMNWVRQSPEKGLEWVAQIRNKPYNYETYYSDSVKGRFTISRDDSKSSVYLQMNNLRVEDMGIYYCTGSYYGMDYWGQGTSVTVS chain 2 DVVMTQTPLSLPVSLGDQASISCRSSQSLVHSNGNTYLRWYLQKPGQSPKVLIYKVSNRFSGVPDRFSGSGSGTDFTLKISRVEAEDLGVYFCSQSTHVPWTFGGGTKLEIK [chain 1 T28H S30N Y32M] | 69.2 | 1.01 |
| chain 1 EVKLDETGGGLVQPGRPMKLSCVASGFTFSDAWMNWYRQSPEKGLEWVAQIRNKPYNYETYYSDSVKGRFTISRDDSKSSVYLQMNNLRVEDMGIYYCTGSYYGMDYWGQGTSVTVS chain 2 DVVMTQTPLSLPVSLGDQASISCRSSQSLVHSNGNTYLRWYLQKPGQSPKVLIYKVSNRFSGVPDRFSGSGSGTDFTLKISRVEAEDLGVYFCSQSTHVPWTFGGGTKLEIK [chain 1 Y32A V37Y] | 205 | 1.23 |
| chain 1 EVKLDETGGGLVQPGRPMKLSCVASGFWFSDYFMNPVRQSPEKGLEWVAQIRNKPYNYETYYSDSVKGRFTISRDDSKSSVYLQMNNLRVEDMGIYYCTGSYYGMDYWGQGTSVTVS chain 2 DVVMTQTPLSLPVSLGDQASISCRSSQSLVHSNGNTYLRWYLQKPGQSPKVLIYKVSNRFSGVPDRFSGSGSGTDFTLKISRVEAEDLGVYFCSQSTHVPWTFGGGTKLEIK [chain 1 T28W W33F W36P] | ≥ 10000 | 0.554 |
